# T1: 重组蛋白BontB(B型肉毒毒素轻链) (肉毒梭菌 (Clostridium botulinum), UniProt P10844 1-441)
# T1 sequence: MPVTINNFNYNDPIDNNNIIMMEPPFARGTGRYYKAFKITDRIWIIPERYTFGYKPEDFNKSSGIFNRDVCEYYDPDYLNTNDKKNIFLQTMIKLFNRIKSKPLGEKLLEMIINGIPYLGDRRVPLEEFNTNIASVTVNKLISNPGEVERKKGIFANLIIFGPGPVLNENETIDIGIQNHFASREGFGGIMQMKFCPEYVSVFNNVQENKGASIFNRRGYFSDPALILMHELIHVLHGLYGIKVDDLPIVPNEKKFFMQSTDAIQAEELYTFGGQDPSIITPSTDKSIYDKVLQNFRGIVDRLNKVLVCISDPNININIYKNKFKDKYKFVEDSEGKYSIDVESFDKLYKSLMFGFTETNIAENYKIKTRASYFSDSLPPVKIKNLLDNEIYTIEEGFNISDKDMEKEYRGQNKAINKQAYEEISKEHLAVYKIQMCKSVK
# B1: 4C-scFv (scFv)
# scFv: EVQLLESGGGLVQPGGSLRLSCAASGFTFSSYAMSWVRQAPGKGLEWVSGISPMGTRTSYADSVKGRFTISRDNSKNTLYLQMNSLRAEDTAVYYCAKNANGFDYWGQGTLVTVSSGGGGSGGGGSGGGGSTDIQMTQSPSSLSASVGDRVTITCRASQSISSYLNWYQQKPGKAPKLLIYRASVLQSGVPSRFSGSGSGETDFTLTISSLQPEDFATYYCQQRSRPPITFGQGTKVEIKRAAAHHHHHHGAAEQKLISEEDLNGAA
# B2: 3A-scFv (scFv)
# scFv: EVQLLESGGGLVQPGGSLRLSCAASGFTFSSYAMSWVRQAPGKGLEWVSNISSNGNATAYADSVKGRFTISRNNSKNTLYLQMNSLRAEDTAVYYCAKYTYAFDYWGQGTLVTVSSGGGGSGGGGSGGGGSTDIQMTQSPSSLSASVGDRVTITCRASQSISSYLNWYQQKPGKAPKLLIYYASNLQSGVPSRFSGSGSGTDFTLTISSLQPEDFATYYCQQDSYTPSTFGQGTKVEIKRAAAHHHHHHGAAEQKLISEEDLNGAA
# B3: 抗B型肉毒毒素酶活性的人源单链抗体2F-scFv (scFv)
# scFv: EVQLLESGGGLVQPGGSLRLSCAASGFTFSSYAMSWVRQAPGKGLEWVSSIASTGSNTAYADSVKGRFTISRNNSKNTLYLQMNSLRAEDTAVYYCAKGTGTFDYWGQGTLVTVSSGGGGSGGGGSGGGGSTDIQMTQSPSSLSASVGDRVTITCRASQSISSYLNWYQQKPGKAPKLLIYTASYLQSGVPSRFSGSGSGTDFTLTISSLQPEDFATYYCQQATTSPYTFGQGTKVEIKRAAAHHHHHHGAEQKLISEEDLNGAA
# Biological target: T1, 重组蛋白BontB(B型肉毒毒素轻链)
row,Binder,Ka
1,B1,438000 M⁻¹
2,B2,535000 M⁻¹
3,B3,1.15e+06 M⁻¹

# Source: patent CN104892754A (INST OF MILITARY VETERINARY ACADEMY OF MILITARY MEDICAL …, dated 2015)
